Assay results from the supplement of paper PMC9112550, “Optimization of the antimicrobial peptide Bac7 by deep mutational scanning” (BMC Biology, 2022).

System: Escherichia coli TOP10
Test: shrunken log2 fold change of peptide-encoding DNA abundance (4.5 h post-induction vs induction); higher = less antimicrobial activity (less host growth inhibition)
Details: time post-induction: 4.5 h; library: site-saturation at positions 5, 18, 19, 20
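Further: peptides expressed intracellularly from a pBAD plasmid library in pooled LB shake-flask culture, induced with 0.3% L-arabinose, DNA abundance read by NGS, three biological replicates, DESeq2 with apeglm shrinkage.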

| Sequence | shrunken log2 fold change |
| --- | --- |
| RRIRGRPPRLPRPRPRPCEGPRP | 0.364 |
| RRIRRRPPRLPRPRPRPASRPRP | 0.202 |
| RRIRKRPPRLPRPRPRPGSGPRP | 0.708 |
| RRIRPRPPRLPRPRPRPQHNPRP | -0.536 |
| RRIRARPPRLPRPRPRPLGEPRP | 0.896 |
| RRIRCRPPRLPRPRPRPIDNPRP | -0.755 |
| RRIRERPPRLPRPRPRPAQSPRP | 0.0517 |
| RRIRGRPPRLPRPRPRPNRMPRP | -0.00965 |
| RRIRWRPPRLPRPRPRPWQVPRP | 0.172 |
| RRIRERPPRLPRPRPRPPSSPRP | 0.0527 |
| RRIRFRPPRLPRPRPRPDEQPRP | 0.00595 |
| RRIRKRPPRLPRPRPRPNRTPRP | -0.0227 |
| RRIRHRPPRLPRPRPRPEFLPRP | -0.0472 |
| RRIRWRPPRLPRPRPRPKILPRP | -0.0469 |
| RRIRGRPPRLPRPRPRPTHVPRP | 0.483 |
| RRIRWRPPRLPRPRPRPCSTPRP | 0.137 |
| RRIRMRPPRLPRPRPRPWQRPRP | 0.179 |
| RRIRSRPPRLPRPRPRPYHSPRP | -0.181 |
| RRIRTRPPRLPRPRPRPHKAPRP | -0.0306 |
| RRIRRRPPRLPRPRPRPHVKPRP | -0.32 |
| RRIRIRPPRLPRPRPRPGMCPRP | -0.238 |
| RRIRMRPPRLPRPRPRPQPVPRP | 0.622 |
| RRIRMRPPRLPRPRPRPAFLPRP | 0.175 |
| RRIRNRPPRLPRPRPRPVRGPRP | 0.649 |
| RRIRYRPPRLPRPRPRPLYGPRP | -0.82 |

| Sequence | shrunken log2 fold change |
| --- | --- |
| RRIRWRPPRLPRPRPRPIMYPRP | -0.0994 |
| RRIRIRPPRLPRPRPRPESFPRP | -0.0048 |
| RRIRSRPPRLPRPRPRPMVFPRP | 0.104 |
| RRIRCRPPRLPRPRPRPKWWPRP | 0.0539 |
| RRIRRRPPRLPRPRPRPMRPPRP | 0.66 |
| RRIRWRPPRLPRPRPRPAEHPRP | -0.0393 |
| RRIRWRPPRLPRPRPRPIYIPRP | -0.889 |
| RRIRVRPPRLPRPRPRPWKAPRP | 0.0634 |
| RRIRERPPRLPRPRPRPSTKPRP | -0.232 |
| RRIRNRPPRLPRPRPRPKRAPRP | 0.146 |
| RRIRNRPPRLPRPRPRPFADPRP | 0.0675 |
| RRIRQRPPRLPRPRPRPYTFPRP | -0.0307 |
| RRIRGRPPRLPRPRPRPAWQPRP | 0.395 |
| RRIRWRPPRLPRPRPRPARLPRP | 0.523 |
| RRIRPRPPRLPRPRPRPQIYPRP | -0.858 |
| RRIRNRPPRLPRPRPRPMGPPRP | 0.0762 |
| RRIRFRPPRLPRPRPRPMCNPRP | -0.24 |
| RRIRQRPPRLPRPRPRPKKYPRP | -0.0221 |
| RRIRNRPPRLPRPRPRPEGHPRP | 0.00677 |
| RRIRMRPPRLPRPRPRPLESPRP | 2.66 |
| RRIRPRPPRLPRPRPRPMTQPRP | 0.272 |
| RRIRDRPPRLPRPRPRPTAAPRP | 0.457 |
| RRIRDRPPRLPRPRPRPLIVPRP | 0.173 |
| RRIRDRPPRLPRPRPRPELCPRP | -0.0337 |
| RRIRARPPRLPRPRPRPARIPRP | 0.169 |

| Sequence | shrunken log2 fold change |
| --- | --- |
| RRIRPRPPRLPRPRPRPRWHPRP | 0.186 |
| RRIRDRPPRLPRPRPRPMYNPRP | -0.354 |
| RRIRWRPPRLPRPRPRPSFNPRP | -0.365 |
| RRIRMRPPRLPRPRPRPAKFPRP | 0.0548 |
| RRIRVRPPRLPRPRPRPFQCPRP | -0.0433 |
| RRIRNRPPRLPRPRPRPNAAPRP | -0.149 |
| RRIRDRPPRLPRPRPRPMGKPRP | 3.67 |
| RRIRPRPPRLPRPRPRPDNTPRP | -0.373 |
| RRIRVRPPRLPRPRPRPRFQPRP | 0.129 |
| RRIRPRPPRLPRPRPRPSYGPRP | -0.2 |
| RRIRNRPPRLPRPRPRPIVRPRP | 0.0133 |
| RRIRHRPPRLPRPRPRPHRYPRP | -0.136 |
| RRIRDRPPRLPRPRPRPEQHPRP | 0.465 |
| RRIRQRPPRLPRPRPRPDDQPRP | 0.164 |
| RRIRYRPPRLPRPRPRPIFVPRP | -0.418 |
| RRIRIRPPRLPRPRPRPHWFPRP | 0.022 |
| RRIRQRPPRLPRPRPRPYHYPRP | -0.711 |
| RRIRLRPPRLPRPRPRPNGKPRP | -0.0324 |
| RRIRDRPPRLPRPRPRPIDKPRP | -0.0708 |
| RRIRVRPPRLPRPRPRPWCCPRP | -0.203 |
| RRIRMRPPRLPRPRPRPQIAPRP | 0.208 |
| RRIRLRPPRLPRPRPRPIPQPRP | -0.0537 |
| RRIRYRPPRLPRPRPRPVSSPRP | -0.272 |
| RRIRRRPPRLPRPRPRPQWEPRP | -0.0504 |
| RRIRRRPPRLPRPRPRPKVYPRP | -0.0919 |

| Sequence | shrunken log2 fold change |
| --- | --- |
| RRIRCRPPRLPRPRPRPTKHPRP | 0.00206 |
| RRIRGRPPRLPRPRPRPRSEPRP | 0.29 |
| RRIRPRPPRLPRPRPRPDQPPRP | -0.0572 |
| RRIRCRPPRLPRPRPRPTYRPRP | 0.0231 |
| RRIRNRPPRLPRPRPRPFDPPRP | -0.805 |
| RRIRERPPRLPRPRPRPWQPPRP | 0.0778 |
| RRIRNRPPRLPRPRPRPGKNPRP | 0.0906 |
| RRIRLRPPRLPRPRPRPTLHPRP | 0.18 |
| RRIRIRPPRLPRPRPRPKGNPRP | -0.459 |
| RRIRYRPPRLPRPRPRPNGTPRP | -0.424 |
| RRIRWRPPRLPRPRPRPNRNPRP | -0.602 |
| RRIRDRPPRLPRPRPRPTDMPRP | 0.284 |
| RRIRMRPPRLPRPRPRPHNHPRP | -0.239 |
| RRIRCRPPRLPRPRPRPIQLPRP | -0.0847 |
| RRIRCRPPRLPRPRPRPMHAPRP | 0.315 |
| RRIRFRPPRLPRPRPRPNWYPRP | -0.542 |
| RRIRKRPPRLPRPRPRPWYMPRP | -0.158 |
| RRIRGRPPRLPRPRPRPYAGPRP | -0.0412 |
| RRIRCRPPRLPRPRPRPIQKPRP | -0.127 |
| RRIRRRPPRLPRPRPRPQARPRP | 0.246 |
| RRIRWRPPRLPRPRPRPAQCPRP | -0.00191 |
| RRIRERPPRLPRPRPRPTSTPRP | -0.319 |
| RRIRKRPPRLPRPRPRPRESPRP | 0.159 |
| RRIRFRPPRLPRPRPRPLKSPRP | -0.307 |
| RRIRDRPPRLPRPRPRPWNEPRP | -0.195 |

| Sequence | shrunken log2 fold change |
| --- | --- |
| RRIRMRPPRLPRPRPRPRRPPRP | 1.16 |
| RRIRTRPPRLPRPRPRPHACPRP | 0.158 |
| RRIRTRPPRLPRPRPRPQCFPRP | 0.0187 |
| RRIRTRPPRLPRPRPRPNTLPRP | -0.377 |
| RRIRERPPRLPRPRPRPRGKPRP | 0.0142 |
| RRIRPRPPRLPRPRPRPMGDPRP | 0.234 |
| RRIRDRPPRLPRPRPRPPAHPRP | 0.56 |
| RRIRERPPRLPRPRPRPWDKPRP | -0.00884 |
| RRIRQRPPRLPRPRPRPRRYPRP | 0.112 |
| RRIRYRPPRLPRPRPRPELGPRP | -0.00146 |
| RRIRIRPPRLPRPRPRPKWDPRP | -0.13 |
| RRIRARPPRLPRPRPRPIQNPRP | 0.376 |
| RRIRPRPPRLPRPRPRPLSAPRP | 0.281 |
| RRIRHRPPRLPRPRPRPHPKPRP | 0.0027 |
| RRIRARPPRLPRPRPRPFWVPRP | -0.0841 |
| RRIRKRPPRLPRPRPRPNEVPRP | -0.152 |
| RRIRSRPPRLPRPRPRPPRNPRP | 0.415 |
| RRIRKRPPRLPRPRPRPPVGPRP | 1.04 |
| RRIRPRPPRLPRPRPRPVWKPRP | 0.218 |
| RRIRLRPPRLPRPRPRPINHPRP | -0.654 |
| RRIRARPPRLPRPRPRPCWRPRP | -0.0211 |
| RRIRERPPRLPRPRPRPDNQPRP | -0.459 |
| RRIRVRPPRLPRPRPRPWAVPRP | 0.157 |
| RRIRRRPPRLPRPRPRPVNTPRP | -0.0567 |
| RRIRPRPPRLPRPRPRPCMHPRP | -0.297 |

| Sequence | shrunken log2 fold change |
| --- | --- |
| RRIRVRPPRLPRPRPRPYGTPRP | -0.13 |
| RRIRIRPPRLPRPRPRPDFEPRP | -0.39 |
| RRIRHRPPRLPRPRPRPTPSPRP | 0.276 |
| RRIRPRPPRLPRPRPRPKDLPRP | -0.146 |
| RRIRARPPRLPRPRPRPQGYPRP | 0.119 |
| RRIRQRPPRLPRPRPRPIQMPRP | -0.0176 |
| RRIRNRPPRLPRPRPRPLWEPRP | -0.106 |
| RRIRERPPRLPRPRPRPHFNPRP | -0.744 |
| RRIRGRPPRLPRPRPRPPQDPRP | 0.781 |
| RRIRIRPPRLPRPRPRPSAHPRP | -0.202 |
| RRIRNRPPRLPRPRPRPWDLPRP | 0.0191 |
| RRIRCRPPRLPRPRPRPEKAPRP | 0.0655 |
| RRIRDRPPRLPRPRPRPTAKPRP | -0.00144 |
| RRIRARPPRLPRPRPRPFIDPRP | -0.554 |
| RRIRLRPPRLPRPRPRPNNDPRP | -0.763 |
| RRIRCRPPRLPRPRPRPYVIPRP | -0.381 |
| RRIRIRPPRLPRPRPRPDWLPRP | -0.166 |
| RRIRGRPPRLPRPRPRPYESPRP | 0.133 |
| RRIRLRPPRLPRPRPRPMWKPRP | -0.0297 |
| RRIRPRPPRLPRPRPRPYPIPRP | -0.175 |
| RRIRQRPPRLPRPRPRPPLFPRP | 0.838 |
| RRIRKRPPRLPRPRPRPVIWPRP | 0.153 |
| RRIRVRPPRLPRPRPRPPKLPRP | 0.0622 |
| RRIRCRPPRLPRPRPRPPHCPRP | 0.971 |
| RRIRYRPPRLPRPRPRPKMPPRP | -0.206 |
